Experimental findings from publication PMC13061415 are described below.

The chains are these.
B1: Twa1 CTLH-CRA domain (58-190), wild type [mouse] / muskelin CTLH-CRA domain (205–735 Δ248–625) [rat] (parent)
chain 1: EHPMLTDMHDKLVLKGDFDACEELIEKAVNDGLFNQYISQQEYPSKDYLLRHCKYLIRKHRFEEKAQMDPLSALKYLQNDLYITVDHSDPEETKEFQLLASALFKSGSDFTALGFSDVDHTYAQRTQLFDTLVNFFPDSMTPPKGNLVDLITL
chain 2: SVDLETLDERIKIREMILKGQIQEAIALINSLHPELLDTNRYLYFHLQQQHLIELIRQRETEAALEFAQTQLAEQGEESRECLTEMERTLALLAFDSPEESPFGDLLHMMQRQKVWSEVNQAVLDYENRESTP

Broadly, the Kd is the concentration at which binding is half-saturated.

The variants in one assay derive from B1. The experiment in a line: ITC. The following applies: with muskelin CTLH-CRA domain (205–735 Δ248–625) [rat]; 160 µM muskelin + 16 µM Twa1 mutants.
Turning to chain 2 A68G Q69R A73Q L83K E87K L90F F95Y F103V, the Kd was found to be 340 nM and the screen value came out at 0.88.

The assay is the same for the next values; noted with them: with muskelin CTLH-CRA domain (205–735 Δ248–625) [rat]; 160 µM muskelin + 16 µM Twa1 mutants; read off a plot.
For chain 2 A68G Q69R A73Q L83K E87K L90F F95Y F103V, the screen value was -9.2 kcal/mol.
